Measurements: US20230175069A1 (published 2023)

What was measured:
[1] = target: T1, SRC (SRC Proto-Oncogene, Non-Receptor Tyrosine Kinase) (human, UniProt P12931 2-536); experiment: co-immunoprecipitation with anti-SRC antibody from T47D cells expressing wtCCDC170, western blot with anti-CCDC170 antibody
T1 construct: Endogenous protein of T47D cells, in cell lysate

[2] = target: T2, HER2 (Erb-B2 Receptor Tyrosine Kinase 2) (human, UniProt P04626 23-1255); experiment: co-immunoprecipitation with anti-HER2 antibody from T47D cells expressing wtCCDC170, western blot with anti-CCDC170 antibody
T2 construct: Endogenous protein of T47D cells, in cell lysate; also called HER2/neu

[3] = target: T3, HER3 (Erb-B2 Receptor Tyrosine Kinase 3) (human, UniProt P21860 20-1342); experiment: co-immunoprecipitation with anti-HER3 antibody from T47D cells expressing wtCCDC170, western blot with anti-CCDC170 antibody
T3 construct: Endogenous protein of T47D cells, in cell lysate; also called ErbB3
T3 sequence (P21860 20-1342 limits assumed): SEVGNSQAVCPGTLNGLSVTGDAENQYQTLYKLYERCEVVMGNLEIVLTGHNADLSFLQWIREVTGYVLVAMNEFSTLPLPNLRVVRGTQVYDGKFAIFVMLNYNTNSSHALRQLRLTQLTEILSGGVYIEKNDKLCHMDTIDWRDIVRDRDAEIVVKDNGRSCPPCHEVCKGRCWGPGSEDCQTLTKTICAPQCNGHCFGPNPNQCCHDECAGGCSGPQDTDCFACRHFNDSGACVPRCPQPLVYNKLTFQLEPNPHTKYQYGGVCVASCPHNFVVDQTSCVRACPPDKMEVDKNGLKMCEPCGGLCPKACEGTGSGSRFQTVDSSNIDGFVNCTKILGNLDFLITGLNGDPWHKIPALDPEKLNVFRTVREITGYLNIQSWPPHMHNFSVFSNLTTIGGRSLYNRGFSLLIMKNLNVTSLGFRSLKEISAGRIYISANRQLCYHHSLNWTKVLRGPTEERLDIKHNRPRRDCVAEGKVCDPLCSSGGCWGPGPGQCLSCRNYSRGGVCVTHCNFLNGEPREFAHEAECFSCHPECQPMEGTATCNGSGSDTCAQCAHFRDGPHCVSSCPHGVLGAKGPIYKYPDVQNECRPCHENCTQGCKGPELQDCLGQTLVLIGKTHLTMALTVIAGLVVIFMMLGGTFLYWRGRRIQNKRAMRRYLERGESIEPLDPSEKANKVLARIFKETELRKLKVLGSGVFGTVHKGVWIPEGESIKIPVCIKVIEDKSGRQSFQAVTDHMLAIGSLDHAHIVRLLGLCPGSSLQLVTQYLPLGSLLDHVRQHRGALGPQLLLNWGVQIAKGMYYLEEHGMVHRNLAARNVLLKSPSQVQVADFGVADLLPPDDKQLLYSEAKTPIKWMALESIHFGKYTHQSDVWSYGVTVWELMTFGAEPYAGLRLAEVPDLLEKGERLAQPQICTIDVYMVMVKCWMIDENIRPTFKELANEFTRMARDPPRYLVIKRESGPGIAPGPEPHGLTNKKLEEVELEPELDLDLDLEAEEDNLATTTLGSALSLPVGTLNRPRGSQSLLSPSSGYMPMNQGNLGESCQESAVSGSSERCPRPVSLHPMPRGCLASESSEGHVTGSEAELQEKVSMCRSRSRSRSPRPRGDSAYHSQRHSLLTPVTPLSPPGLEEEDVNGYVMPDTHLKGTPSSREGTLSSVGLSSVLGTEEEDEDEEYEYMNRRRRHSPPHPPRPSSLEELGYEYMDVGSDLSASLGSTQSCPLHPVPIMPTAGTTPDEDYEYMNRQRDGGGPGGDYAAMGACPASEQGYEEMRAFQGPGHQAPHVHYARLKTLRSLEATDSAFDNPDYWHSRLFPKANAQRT

- binding result [1]: no binding
- binding result [2]: no binding
- binding result [3]: no binding
B1: wild type CCDC170 (Coiled-Coil Domain Containing 170) (other)
chain: MSLDCTSHIALGAASPAPEETYDHLSEVPVTREQLNHYRNVAQNARSELAATLVKFECAQSELQDLRSKMLSKEVSCQELKAEMESYKENNARKSSLLTSLRDRVQELEEESAALSTSKIRTEITAHAAIKENQELKKKVVELNEKLQKCSKENEENKKQVSKNCRKHEEFLTQLRDCLDPDERNDKASDEDLILKLRDLRKENEFVKGQIVILEETINVHEMEAKASRETIMRLASEVNREQKKAASCTEEKEKLNQDLLSAVEAKEALEREVKIFQERLLAGQQVWDASKQEVSLLKKSSSELEKSLKASQDAVTTSQSQYFSFREKIAALLRGRLSMTGSTEDTILEKIREMDSREESRDRMVSQLEAQISELVEQLGKESGFHQKALQRAQKAENMLETLQGQLTHLEAELVSGGVLRDNLNFEKQKYLKFLDQLSQKMKLDQMAAELGFDMRLDVVLARTEQLVRLESNAVIENKTIAHNLQRKLKTQKERLESKELHMSLLRQKIAQLEEEKQARTALVVERDNAHLTIRNLQKKVERLQKELNTCRDLHTELKAKLADTNELKIKTLEQTKAIEDLNKSRDQLEKMKEKAEKKLMSVKSELDTTEHEAKENKERARNMIEVVTSEMKTLKKSLEEAEKREKQLADFREVVSQMLGLNVTSLALPDYEIIKCLERLVHSHQHHFVTCACLKDVTTGQERHPQGHLQLLH
notes: Ectopically expressed in T47D cells and assayed in cell lysate; also called wtCCDC170; WT
